Test results from patent publication US7439329B2, “GEF-H1b: biomarkers, complexes assays and therapeutic uses thereof” (Sugen, Inc., priority 2002, dated 2008).

Tests used:
GEF-H1S [1] = target: T1, GEF-H1S (Homo sapiens, UniProt Q92974, INS962GETLAETWTR); test: Pull-down of GEF-H1 with PAK4 domains and biotinylated PAK4 peptides; assay type: binding; conditions: PAK4 domain expressed in 293T lysate; GST-GEF-H1S (aa763-921) on glutathione beads
T1 sequence (Q92974 with tags, fused parts or gaps): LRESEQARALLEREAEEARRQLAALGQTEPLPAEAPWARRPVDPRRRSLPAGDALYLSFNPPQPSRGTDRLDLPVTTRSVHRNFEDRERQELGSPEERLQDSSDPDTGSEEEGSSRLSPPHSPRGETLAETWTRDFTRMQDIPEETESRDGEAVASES
Protocol: (§1) FIG. 1: (SEQ ID NOs 32-34 respectively in order of appearance) Direct binding of GEF-H1 to PAK4. Lysates were prepared from 293T cells over expressing (a) myc tagged PAK4 alleles or subdomains and incubated with GST, GST-GEF-H1 (787-921) and GST-Maguin-like bound to Glutathione beads (1,2,3,4 bead designation) or (b) GFP-GEF-H1 and incubated with PAK4 biotinylated peptides (291-355) and (276-324) linked to streptavidin beads. An equivalent amount of beads and excess lysates (500 ug) were used. Eluates of beads and total lysates were analysed by SDS-PAGE and immunoblotted with myc or GEF-H1 antiserum; (c) represents a PAK4 gene schematic outlining the regions of PAK4 used to identify the GEF-H1 interaction domain (GID). d, alignment of the GID defined by the minimal binding region of PAK4 with PAK5 and PAK6.
(§2) To confirm the in vitro interaction of GEF-H1S with PAK4, bacterially expressed GST-fusion proteins were generated with the identical sequences isolated by phage display, encoding either amino acids 763-921 of GEF-H1S or amino acids 385-555 from the Maguin-2-like protein. These fusion proteins were bound to glutathione beads and utilized in binding assays with 293T lysates expressing exogenous PAK4.
(§3) Biotinylated peptides derived from the N-terminal region of PAK4 sequence were used to further map the GEF-H1 binding site. […]

GEF-H1S [2] = target: T2, GEF-H1S (Homo sapiens, UniProt Q92974, INS962GETLAETWTR); test: as above; assay type: binding; conditions: biotinylated PAK4 peptides linked to streptavidin beads
T2 sequence (Q92974 with tags, fused parts or gaps): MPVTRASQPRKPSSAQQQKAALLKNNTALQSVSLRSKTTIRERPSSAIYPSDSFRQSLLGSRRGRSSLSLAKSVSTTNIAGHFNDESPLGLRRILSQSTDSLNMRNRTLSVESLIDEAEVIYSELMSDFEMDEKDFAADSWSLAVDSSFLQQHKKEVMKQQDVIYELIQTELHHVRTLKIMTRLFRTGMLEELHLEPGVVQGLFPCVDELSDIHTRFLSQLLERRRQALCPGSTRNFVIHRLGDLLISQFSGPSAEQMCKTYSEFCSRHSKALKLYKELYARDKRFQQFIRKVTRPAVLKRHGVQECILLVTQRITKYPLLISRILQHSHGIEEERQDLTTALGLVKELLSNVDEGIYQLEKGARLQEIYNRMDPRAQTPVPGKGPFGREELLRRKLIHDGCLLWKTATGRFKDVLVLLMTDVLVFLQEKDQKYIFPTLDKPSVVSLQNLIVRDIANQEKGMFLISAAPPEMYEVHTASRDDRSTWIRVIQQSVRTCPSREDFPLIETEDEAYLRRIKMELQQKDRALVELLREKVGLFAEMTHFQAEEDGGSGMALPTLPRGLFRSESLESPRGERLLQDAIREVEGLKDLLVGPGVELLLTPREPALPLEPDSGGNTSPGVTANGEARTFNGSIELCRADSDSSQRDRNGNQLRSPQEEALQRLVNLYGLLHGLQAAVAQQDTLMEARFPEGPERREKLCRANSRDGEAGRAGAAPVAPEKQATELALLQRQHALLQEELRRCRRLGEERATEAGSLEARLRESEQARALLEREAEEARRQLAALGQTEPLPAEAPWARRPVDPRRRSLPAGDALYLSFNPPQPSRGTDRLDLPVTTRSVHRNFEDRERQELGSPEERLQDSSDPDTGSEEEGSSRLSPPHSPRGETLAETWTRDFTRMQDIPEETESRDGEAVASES
Protocol: as §1, §2, §3

GEF-H1S [3] = test: Co-transfection of GEF-H1S and PAK4 alleles, Western blot with phospho-specific GEF-H1 antibodies; assay type: cell-based, human
Protocol: To confirm that GEF-H1S phosphorylation by PAK4 occurs at these sites in vivo, co-transfection assays were performed and analyzed phosphorylation of GEF-H1 by use of a phospho-specific antibody directed against phospho-serine 810. This antibody is specific for GEF-H1 that is phosphorylated on Ser 810. […] Expression of the kinase-dead PAK4 is also able to inhibit endogenous PAK4 basal phosphorylation of GEF-H1S on Ser 810.
In this experiment GEF-H1S expression vector was pRSV/Rc and the PAK4 expression vector was pcDNA. Lysates were prepared from the transfected 293T cells and analyzed by Western Blot using the anti-1009 reagent. […] These phosphospecific antibodies can be used to detect PAK4 activity in tumors by virtue of its specific phosphorylation of GEF-H1.

[4] = co-expression with GEF-H1S in mammalian (293T) cells, anti-1009 Western blot, relative to basal phosphorylation

B1: amino acids 1-309: amino-terminal regulatory domain of PAK4 alone (protein, UniProt O96013 1-309, looked up, fragment)
chain: MFGKRKKRVEISAPSNFEHRVHTGFDQHEQKFTGLPRQWQSLIEESARRPKPLVDPACITSIQPGAPKTIVRGSKGAKDGALTLLLDEFENMSVTRSNSLRRDSPPPPARARQENGMPEEPATTARGGPGKAGSRGRFAGHSEAGGGSGDRRRAGPEKRPKSSREGSGGPQESSRDKRPLSGPDVGTPQPAGLASGAKLAAGRPFNTYPRADTDHPSRGAQGEPHDVAPNGPSAGGLAIPQSSSSSSRPPTRARGAPSPGVLGPHASEPQLAPPACTPAAPAVPGPPGPRSPQREPQRVSHEQFRAALQ
interaction with GEF-H1S (GEF-H1S [1]): did not stably interact

B2: amino acids 291-355: biotinylated PAK4 peptide covering a more C-terminal region (peptide, UniProt O96013 291-355, looked up, fragment)
chain: SPQREPQRVSHEQFRAALQLVVDPGDPRSYLDNFIKIGEGSTGIVCIATVRSSGKLVAVKKMDLR
modifications: biotin
notes: biotinylated PAK4 peptide covering a more C-terminal region
interaction with GEF-H1S (GEF-H1S [2]): did not

B3: S474E: activated PAK4 mutant (protein)
chain: MFGKRKKRVEISAPSNFEHRVHTGFDQHEQKFTGLPRQWQSLIEESARRPKPLVDPACITSIQPGAPKTIVRGSKGAKDGALTLLLDEFENMSVTRSNSLRRDSPPPPARARQENGMPEEPATTARGGPGKAGSRGRFAGHSEAGGGSGDRRRAGPEKRPKSSREGSGGPQESSRDKRPLSGPDVGTPQPAGLASGAKLAAGRPFNTYPRADTDHPSRGAQGEPHDVAPNGPSAGGLAIPQSSSSSSRPPTRARGAPSPGVLGPHASEPQLAPPACTPAAPAVPGPPGPRSPQREPQRVSHEQFRAALQLVVDPGDPRSYLDNFIKIGEGSTGIVCIATVRSSGKLVAVKKMDLRKQQRRELLFNEVVIMRDYQHENVVEMYNSYLVGDELWVVMEFLEGGALTDIVTHTRMNEEQIAAVCLAVLQALSVLHAQGVIHRDIKSDSILLTHDGRVKLSDFGFCAQVSKEVPRRKELVGTPYWMAPELISRLPYGPEVDIWSLGIMVIEMVDGEPPYFNEPPLKAMKMIRDNLPPRLKNLHKVSPSLKGFLDRLLVRDPAQRATAAELLKHPFLAKAGPPASIVPLMRQNRTR
phosphorylation of GEF-H1S on Ser 810 (GEF-H1S [3]; [4]): marked increase | phosphorylation of GEF-H1S on Ser 810 (GEF-H1S [3]; co-expression with GEF-H1S in mammalian (293T) cells, anti-1009 Western blot, relative to basal phosphorylation, listed as activated PAK4): enhanced | phosphorylation of GEF-H1S on Ser 67 (GEF-H1S [3]; co-transfection with GEF-H1S, phospho-specific antibodies against Ser 67): stimulated phosphorylation

B4: wild type PAK4 (1-591): wild type p-21-activated kinase 4 expressed from pcDNA (protein)
chain: MFGKRKKRVEISAPSNFEHRVHTGFDQHEQKFTGLPRQWQSLIEESARRPKPLVDPACITSIQPGAPKTIVRGSKGAKDGALTLLLDEFENMSVTRSNSLRRDSPPPPARARQENGMPEEPATTARGGPGKAGSRGRFAGHSEAGGGSGDRRRAGPEKRPKSSREGSGGPQESSRDKRPLSGPDVGTPQPAGLASGAKLAAGRPFNTYPRADTDHPSRGAQGEPHDVAPNGPSAGGLAIPQSSSSSSRPPTRARGAPSPGVLGPHASEPQLAPPACTPAAPAVPGPPGPRSPQREPQRVSHEQFRAALQLVVDPGDPRSYLDNFIKIGEGSTGIVCIATVRSSGKLVAVKKMDLRKQQRRELLFNEVVIMRDYQHENVVEMYNSYLVGDELWVVMEFLEGGALTDIVTHTRMNEEQIAAVCLAVLQALSVLHAQGVIHRDIKSDSILLTHDGRVKLSDFGFCAQVSKEVPRRKSLVGTPYWMAPELISRLPYGPEVDIWSLGIMVIEMVDGEPPYFNEPPLKAMKMIRDNLPPRLKNLHKVSPSLKGFLDRLLVRDPAQRATAAELLKHPFLAKAGPPASIVPLMRQNRTR
phosphorylation of GEF-H1S on Ser 810 (GEF-H1S [3]; co-expressed with Cdc42): enhanced | phosphorylation of GEF-H1S on Ser 810 (GEF-H1S [3]; [4]): marked increase

B5: PAK4 kinase dead K350,351A: kinase inactive PAK4 mutant (protein, UniProt O96013 1-591, looked up, variant K350A K351A)
Serine/threonine-protein …: MFGKRKKRVEISAPSNFEHRVHTGFDQHEQKFTGLPRQWQSLIEESARRPKPLVDPACITSIQPGAPKTIVRGSKGAKDGALTLLLDEFENMSVTRSNSLRRDSPPPPARARQENGMPEEPATTARGGPGKAGSRGRFAGHSEAGGGSGDRRRAGPEKRPKSSREGSGGPQESSRDKRPLSGPDVGTPQPAGLASGAKLAAGRPFNTYPRADTDHPSRGAQGEPHDVAPNGPSAGGLAIPQSSSSSSRPPTRARGAPSPGVLGPHASEPQLAPPACTPAAPAVPGPPGPRSPQREPQRVSHEQFRAALQLVVDPGDPRSYLDNFIKIGEGSTGIVCIATVRSSGKLVAVAAMDLRKQQRRELLFNEVVIMRDYQHENVVEMYNSYLVGDELWVVMEFLEGGALTDIVTHTRMNEEQIAAVCLAVLQALSVLHAQGVIHRDIKSDSILLTHDGRVKLSDFGFCAQVSKEVPRRKSLVGTPYWMAPELISRLPYGPEVDIWSLGIMVIEMVDGEPPYFNEPPLKAMKMIRDNLPPRLKNLHKVSPSLKGFLDRLLVRDPAQRATAAELLKHPFLAKAGPPASIVPLMRQNRTR
phosphorylation of GEF-H1S on Ser 810 (GEF-H1S [3]; [4]): marked decrease | phosphorylation of GEF-H1S on Ser 810 (GEF-H1S [3]; co-expression with GEF-H1S in mammalian (293T) cells, anti-1009 Western blot, relative to basal phosphorylation, listed as kinase-dead PAK4): inhibit
